# From the supplement of paper PMC10567573
# B1: RAB22A (parent)
# chain: FVEDSFDPNINPTIGASFMTKTVQ
# Variants of: B1
# Assay: protein stability index of a GFP-peptide fusion (GPS, HEK-293T) (PSI 1-6); higher = more stable
# Conditions: c terminus: a fixed tail appended
# 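Note: lentivirally expressed fusions sorted by FACS into six bins by GFP to DsRed ratio, PSI derived from sequencing read proportions per bin multiplied by bin number.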
row,Variant,protein stability index
1,FVEDSFDPNINPTPGASFMTKTVQ [I14P],3.07
2,FVEDSFDPNINPTQGASFMTKTVQ [I14Q],2.78
3,FVEDSFDPNINPTRGASFMTKTVQ [I14R],2.14
4,FVEDSFDPNINPTSGASFMTKTVQ [I14S],2.46
5,FVEDSFDPNINPTTGASFMTKTVQ [I14T],2.78
6,FVEDSFDPNINPTVGASFMTKTVQ [I14V],2.69
7,FVEDSFDPNINPTWGASFMTKTVQ [I14W],2.43
8,FVEDSFDPNINPTYGASFMTKTVQ [I14Y],2.23
9,FVEDSFDPNINPTIAASFMTKTVQ [G15A],2.46
10,FVEDSFDPNINPTICASFMTKTVQ [G15C],2.03
11,FVEDSFDPNINPTIDASFMTKTVQ [G15D],2.86
12,FVEDSFDPNINPTIEASFMTKTVQ [G15E],2.86
13,FVEDSFDPNINPTIFASFMTKTVQ [G15F],2.33
14,FVEDSFDPNINPTIHASFMTKTVQ [G15H],2.08
15,FVEDSFDPNINPTIIASFMTKTVQ [G15I],1.66
16,FVEDSFDPNINPTIKASFMTKTVQ [G15K],2.1
17,FVEDSFDPNINPTILASFMTKTVQ [G15L],2.06
18,FVEDSFDPNINPTIMASFMTKTVQ [G15M],2.06
19,FVEDSFDPNINPTINASFMTKTVQ [G15N],2.41
20,FVEDSFDPNINPTIPASFMTKTVQ [G15P],2.42
21,FVEDSFDPNINPTIQASFMTKTVQ [G15Q],2.38
22,FVEDSFDPNINPTIRASFMTKTVQ [G15R],1.92
23,FVEDSFDPNINPTISASFMTKTVQ [G15S],2.4
24,FVEDSFDPNINPTITASFMTKTVQ [G15T],2.22

row,Variant,protein stability index
1,FVEDSFDPNINPTIVASFMTKTVQ [G15V],1.87
2,FVEDSFDPNINPTIWASFMTKTVQ [G15W],1.85
3,FVEDSFDPNINPTIYASFMTKTVQ [G15Y],1.9
4,FVEDSFDPNINPTIGCSFMTKTVQ [A16C],1.8
5,FVEDSFDPNINPTIGDSFMTKTVQ [A16D],2.55
6,FVEDSFDPNINPTIGESFMTKTVQ [A16E],3.38
7,FVEDSFDPNINPTIGFSFMTKTVQ [A16F],2.07
8,FVEDSFDPNINPTIGGSFMTKTVQ [A16G],2.56
9,FVEDSFDPNINPTIGHSFMTKTVQ [A16H],2.11
10,FVEDSFDPNINPTIGISFMTKTVQ [A16I],2.11
11,FVEDSFDPNINPTIGKSFMTKTVQ [A16K],1.97
12,FVEDSFDPNINPTIGLSFMTKTVQ [A16L],1.81
13,FVEDSFDPNINPTIGMSFMTKTVQ [A16M],1.75
14,FVEDSFDPNINPTIGNSFMTKTVQ [A16N],2.74
15,FVEDSFDPNINPTIGPSFMTKTVQ [A16P],2.54
16,FVEDSFDPNINPTIGQSFMTKTVQ [A16Q],2.61
17,FVEDSFDPNINPTIGRSFMTKTVQ [A16R],2.26
18,FVEDSFDPNINPTIGSSFMTKTVQ [A16S],2.86
19,FVEDSFDPNINPTIGTSFMTKTVQ [A16T],2.26
20,FVEDSFDPNINPTIGVSFMTKTVQ [A16V],1.81
21,FVEDSFDPNINPTIGWSFMTKTVQ [A16W],2.15
22,FVEDSFDPNINPTIGYSFMTKTVQ [A16Y],1.95
23,FVEDSFDPNINPTIGAAFMTKTVQ [S17A],2.18
24,FVEDSFDPNINPTIGACFMTKTVQ [S17C],2.04

row,Variant,protein stability index
1,FVEDSFDPNINPTIGADFMTKTVQ [S17D],2.53
2,FVEDSFDPNINPTIGAEFMTKTVQ [S17E],2.66
3,FVEDSFDPNINPTIGAFFMTKTVQ [S17F],2.14
4,FVEDSFDPNINPTIGAGFMTKTVQ [S17G],2.31
5,FVEDSFDPNINPTIGAHFMTKTVQ [S17H],2.35
6,FVEDSFDPNINPTIGAIFMTKTVQ [S17I],2.25
7,FVEDSFDPNINPTIGAKFMTKTVQ [S17K],2.29
8,FVEDSFDPNINPTIGALFMTKTVQ [S17L],1.77
9,FVEDSFDPNINPTIGAMFMTKTVQ [S17M],1.74
10,FVEDSFDPNINPTIGANFMTKTVQ [S17N],2.28
11,FVEDSFDPNINPTIGAPFMTKTVQ [S17P],2.49
12,FVEDSFDPNINPTIGAQFMTKTVQ [S17Q],2.6
13,FVEDSFDPNINPTIGARFMTKTVQ [S17R],2.51
14,FVEDSFDPNINPTIGATFMTKTVQ [S17T],2.17
15,FVEDSFDPNINPTIGAVFMTKTVQ [S17V],1.74
16,FVEDSFDPNINPTIGAWFMTKTVQ [S17W],1.96
17,FVEDSFDPNINPTIGAYFMTKTVQ [S17Y],1.82
18,FVEDSFDPNINPTIGASAMTKTVQ [F18A],3.22
19,FVEDSFDPNINPTIGASCMTKTVQ [F18C],3.17
20,FVEDSFDPNINPTIGASDMTKTVQ [F18D],3.45
21,FVEDSFDPNINPTIGASEMTKTVQ [F18E],3.37
22,FVEDSFDPNINPTIGASGMTKTVQ [F18G],3.35
23,FVEDSFDPNINPTIGASHMTKTVQ [F18H],3.24
24,FVEDSFDPNINPTIGASIMTKTVQ [F18I],3.32

row,Variant,protein stability index
1,FVEDSFDPNINPTIGASKMTKTVQ [F18K],2.79
2,FVEDSFDPNINPTIGASLMTKTVQ [F18L],2.56
3,FVEDSFDPNINPTIGASMMTKTVQ [F18M],2.65
4,FVEDSFDPNINPTIGASNMTKTVQ [F18N],3.94
5,FVEDSFDPNINPTIGASPMTKTVQ [F18P],2.98
6,FVEDSFDPNINPTIGASQMTKTVQ [F18Q],3.52
7,FVEDSFDPNINPTIGASRMTKTVQ [F18R],2.83
8,FVEDSFDPNINPTIGASSMTKTVQ [F18S],3.29
9,FVEDSFDPNINPTIGASTMTKTVQ [F18T],3.15
10,FVEDSFDPNINPTIGASVMTKTVQ [F18V],3.07
11,FVEDSFDPNINPTIGASWMTKTVQ [F18W],2.08
12,FVEDSFDPNINPTIGASYMTKTVQ [F18Y],3.08
13,FVEDSFDPNINPTIGASFATKTVQ [M19A],3.11
14,FVEDSFDPNINPTIGASFCTKTVQ [M19C],2.66
15,FVEDSFDPNINPTIGASFDTKTVQ [M19D],3.24
16,FVEDSFDPNINPTIGASFETKTVQ [M19E],3.36
17,FVEDSFDPNINPTIGASFFTKTVQ [M19F],1.73
18,FVEDSFDPNINPTIGASFGTKTVQ [M19G],2.4
19,FVEDSFDPNINPTIGASFHTKTVQ [M19H],2.12
20,FVEDSFDPNINPTIGASFITKTVQ [M19I],2.25
21,FVEDSFDPNINPTIGASFKTKTVQ [M19K],2.1
22,FVEDSFDPNINPTIGASFLTKTVQ [M19L],2.22
